Results from patent US7772181B2, “Personal care compositions comprising modified variant Bowman Birk Protease Inhibitors” (Danisco US Inc., priority 2008, dated 2010).
Numbering of substitutions follows the chain as printed. Names may count otherwise. One block for each molecule: values may come before it.

Tests used:
[1] = biological target: T1, bovine pancreatic trypsin (Bos taurus, UniProt P00760); experiment: Purification process yield of octuple variants (trypsin inhibition); type: biochemical
T1 construct: purchased Worthington (Worthington Biochemical Corp.)
T1 sequence (P00760 24-246): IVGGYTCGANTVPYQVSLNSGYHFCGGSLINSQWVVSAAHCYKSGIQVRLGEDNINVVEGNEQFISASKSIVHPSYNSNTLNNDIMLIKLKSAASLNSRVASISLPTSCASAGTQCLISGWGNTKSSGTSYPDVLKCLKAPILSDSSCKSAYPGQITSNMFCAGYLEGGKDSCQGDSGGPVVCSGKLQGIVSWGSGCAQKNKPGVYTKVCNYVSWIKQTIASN
Procedure: The best octuple variants selected in the shake flask screen were tested in the purification process essentially as described above, and including the following changes: 1) after growth, the culture was two fold diluted in glycine buffer (125 mM final concentration and pH adjusted to 9.0) instead of CHES buffer; 2) samples were activated with 2 mM 2-mercaptoethanol only (no sodium sulfite was added; 3) the acid precipitated fusion protein was resuspended in 100 ml of 125 mM glycine (rather than 350 ml of 40 mM glycine); and 4) the pellet collected after the acid/heat treatment was washed with 10 ml water, filtered, and this “washed pellet” filtrate was combined with the original filtrate. The final filtrates were concentrated and trimmed with Glu-BL as described above

VegF = biological target: T2, VegF (UniProt P15692); experiment: BioVeris electrochemiluminescence competition binding assay, VEGF; conditions: for IC50: Target protein VEGF, competition assay, concentration reducing BioVeris signal by one half, read-out: BioVeris Binding (apparent IC50)
T2 sequence (P15692 207-395): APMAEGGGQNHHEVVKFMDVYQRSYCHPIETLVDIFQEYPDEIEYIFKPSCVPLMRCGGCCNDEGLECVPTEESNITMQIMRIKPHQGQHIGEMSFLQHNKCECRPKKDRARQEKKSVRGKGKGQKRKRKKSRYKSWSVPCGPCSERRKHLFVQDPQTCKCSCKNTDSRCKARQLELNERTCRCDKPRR
Procedure: Briefly, after cleavage, the pH of the cleaved sample was adjusted to 5.5, the sample was then loaded onto the column (equilibrated with 25 mM MES pH 5.5). The free 2BBIck81 was washed through the column using 25 mM sodium acetate pH 5.0 while the BCE103 catalytic core remained bound to the resin. The 2BBIck81 fraction was concentrated by ultrafiltration and analyzed using an electrochemiluminescence (ECL) based binding assay (BioVeris). The Anti-VegF antibody (Santa Cruz) and VegF (PeproTech) were labeled with the electrochemiluminescent dye and biotin, respectively, as described by the manufacturer (BioVeris). All materials were in Dulbecco's PBS (Mediatech) supplemented with 0.1% TWEEN®-80. An initial dilution series of Anti-VegF antibody (125, 250 and 500 ng/ml) and VegF (100, 150, 200 and 250 ng/ml) were tested in the binding assay to determine the concentrations of each that would give a robust ECL signal.
For testing 2BBIck81 binding, 50 μL of 500 ng/ml ECL labeled Anti-VegF antibody, 50 μL of 250 ng/ml biotinylated VegF and 100 μL 2BBIck81 (series of 12.5, 15, 31.25, 62.5, 125, 250 or 500 ng/ml) were incubated at room temperature for 2 h with shaking. Then, 50 μL of 0.2 mg/ml streptavidin coated beads were added and the reaction was incubated at room temperature for 30 minutes. The ECL signal was measured using a BioVeris M8/384 Analyzer as described by the manufacturer (BioVeris).
The resulting vectors were used to transform B. subtilis BG6006 host cells. Cultures were grown in 500 ml of MBD medium and the BBI species were purified essentially as described above and by Vogtentanz et al., 2007 (Protein Expr Purif 55:40-52 [2007]). BioVeris binding assays were performed essentially as outlined in Example 5 and by the manufacturer. Binding of the modified variant BBIs to their respective target proteins was measured using a BioVeris® binding assay, which is a competition assay that determines the binding of the modified variant BBIs to its target protein (e.g. VEGF, FGF5, TGFβ and TNFα) in the presence or absence of a labeled competitor. The competitor can be a labeled monoclonal antibody raised against the target protein or a labeled native receptor of the target protein. The electrochemiluminescent binding assays were performed essentially as described in Example 5. The apparent IC50s were determined from binding data by determining the concentration of the BBI species needed to reduce the BioVeris signal by one half. BBI scaffolds without the target binding peptide in the chymotrypsin inhibitory loop were used as negative controls.

[2] = biological target: T1, bovine pancreatic trypsin; experiment: Shake flask screen: trypsin inhibition after growth, 2-mercaptoethanol activation and acid/heat treatment; type: biochemical; conditions: single substitutions in BBIt-AV
Procedure: To increase expression, the gene copy of the selected clones was amplified by sequentially streaking colonies on Luria agar plates with 25 μg/ml chloramphenicol until the growth rate was similar to growth on Luria agar plates without chloramphenicol. Cultures of the selected variants and controls were grown in 3 ml Luria broth with 25 μg/ml chloramphenicol in 15 ml tubes for ˜10 h. These cultures (30 μl) were then used to inoculate 30 ml of MBD medium in 250 ml baffled shake flasks and grown at 37° C. and 225 rpm for ˜60 h.
For selection of the variants with the best yields, the culture broths were processed as follows. The broth was first activated by mixing 20 ml of broth with 20 ml of 0.25 M glycine buffer (pH 9.3) and the pH was adjusted to 9.0 with 50% NaOH. Then, 2-mercaptoethanol was added to the diluted cultures to a final concentration of 2 mM and the cultures were incubated overnight at room temperature with gentle shaking. The BBIt-AV moiety was then cleaved from the fusion protein by acid/heat treatment, which was accomplished by first adjusting the pH of the activated broth to pH 1.9-2.0 with sulfuric acid, and followed by incubation at 60° C. for 16 hours, with shaking. The BBIt-AV-BCE fusion protein and the BCE catalytic domain are not soluble at pH 2, whereas the free BBI species is soluble. After the cleavage reaction, the insoluble material was removed by centrifugation (5 min. at 3,000 rpm) and the supernatant was analyzed for trypsin inhibitory activity as described above. The BBI activity was also determined for the starting material and for the samples taken after activation. The BCE activity of the starting material was also determined as described above. The BBIt-AV:BCE activity ratios were then calculated for each step in process. The modified BBIt-AVs produced at the highest yields following the acid/heat treatment were selected for further study.

[3] = biological target: T1, bovine pancreatic trypsin; experiment: BBIt-AV:BCE activity ratio, microtiter plate screens (primary, quadruplicate secondary); type: biochemical; conditions: single substitution in BBIt-AV, in the presence of reducing agent
Procedure: The cultures in each master plate were thawed and a pin replicator was used to inoculate a new sterile microtiter plate containing 150 μl of Luria broth with 5 μg/ml chloramphenicol in each well. The plates were grown for ˜10 hrs in a humidified and aerated box as described above. For controls, the cultures in two wells were replaced with BBI and BBI-AV cultures that had been grown concurrently in 15 ml culture tubes (5 ml of Luria broth with 5 μg/ml chloramphenicol). After the cultures were grown, the plate was used to inoculate two duplicate 96-well filter plates (Millipore, MSGV2210) containing 150 μl of MBD medium (Vogtentanz et al., 2007) with 5 μg/ml chloramphenicol in each well by using a pin replicator. The duplicate plates were grown for ˜14 hours (as above, with plastic spacers placed between the stacked plates to allow for efficient air flow around the plates) and then 2-mecaptoethanol was added to each well in one of the plates to a final concentration of 2 mM. The plates were then grown for an additional ˜46 hours. The 96-well filter plates containing the culture broth (with or without added 2-mecaptoethanol) were then assayed for BBI and BCE activity.
Libraries were analyzed using dilutions of cultures grown in 96-well plates. Typically, the culture broth from each well was diluted (200 fold) in Assay Buffer (100 mM Tris pH 8.6, 0.005% Tween 80) and transferred to a second microtiter plate (CoStar 9017, Corning, Inc., Corning, N.Y.). Then, 20 μl of the diluted samples were transferred to a third microtiter plate. A standard curve was created by adding 20, 10, 5 or 2.5 μl of the diluted sBBI (SEQ ID NO:13) control culture to empty wells. Then, 80 μL of 50 ng/ml trypsin (bovine pancreatic trypsin, Worthington Biochemical Corp., Lakewood, N.J.) (prepared from a 1 mg/mL stock solution diluted into Assay Buffer) was added to each well of the plate. The reactions were mixed and incubated 15 min at room temperature. After the incubation, 100 μL of 0.5 mg/ml trypsin substrate (succinyl-Ala-Ala-Pro-Arg-para-nitroanilide, Bachem Bioscience, Inc., King of Prussia, Pa.), diluted in Assay Buffer from a 100 mg/ml solution in DMSO, was added to each well, mixed, and the absorbance at 405 nm was monitored for 15 min, with 1 time point recorded every 12 sec using a Spectra Max 250 (Molecular Devices). The data points were used to determine the rate for each reaction. The standard curve was generated by plotting the reaction rate versus the BBI volume and was fitted to a four-parameter equation. All data fitting was done using software supplied by the manufacturer (Molecular Devices Corp., Sunnyvale, Calif.). The activity of each BBIt-AV variant was calculated from the standard curve. Thus, the activities of all modified variant proteins were determined relative to the activity in the sBBI control (BBI-WT) culture.
The concentration of BCE was determined by an activity assay using purified BCE as a standard as described above and by (Vogtentanz et al. 2007). For the analysis of libraries grown in 96-well microtiter plates, 20 μl of culture broth were transferred to each well of a new microtiter plate. A standard curve was created by adding 20, 10, 5 or 2.5 μl of the diluted BBI-WT control culture to these empty wells. Then, 180 μl of the BCE substrate (0.25 μg/ml in Assay Buffer), 4-nitrophenyl β-D-cellobioside (Sigma, St. Louis, Mo.), was added to the plate. The plate was mixed and the absorbance at 405 nm monitored for 15 min, with 1 time point recorded every 12 s using a Spectra Max 250 (Molecular Devices Corp., Sunnyvale, Calif.). The data points were used to determine the rate for each reaction. The standard curve was generated by plotting rate versus culture volume and was fit to a quadratic curve. The BCE concentration in each variant culture was determined relative to the standard control culture. […]

yield relative to wild-type sBBI [1]: better than the wild-type sBBI
B1: QQ8: octuple modified variant BBPI, SEQ ID NO:628 (protein)
chain: DPDDESSKPCCDQCICTKSNPPQCRCKDARRNECHSACKSCKCYNLYGWTCQCQDITDFCYEPCKPSE
modifications: synthetic BBPI variant
purification yield relative to quintuple variant (SEQ ID NO:601) [1]: greater than that of the quintuple modified variant

yield relative to wild-type sBBI [1]: better than the wild-type sBBI
B2: RL8: octuple modified variant BBPI, SEQ ID NO:630 (protein)
chain: B1 chain with E33A, K42H, Q52R, Q54L
modifications: synthetic BBPI variant

yield relative to wild-type sBBI [1]: better than the wild-type sBBI
B3: KT8: octuple modified variant BBPI, SEQ ID NO:627 (protein)
chain: B1 chain with K27R, R31P, E33A, K42H, Q52K, Q54T
modifications: synthetic BBPI variant
purification yield relative to quintuple variant (SEQ ID NO:601) [1]: greater than that of the quintuple modified variant

IC50 (VegF): 2 to 10 µM
B4: BBIt-AV of SEQ ID NO: 640 (protein)
chain: DPDDESSKPCCDQCICTKSNPPQCRCRDARPNACHSACKSCACKYYLYWWCKCTDITDFCYEPCKPSE
modifications: synthetic BBIt-VEGK

IC50 (VegF): 2 to 10 µM
B5: BBIt-AV of SEQ ID NO: 642 (protein)
chain: B4 chain with Y46D
modifications: synthetic BBIt-VEGKD

IC50 (VegF): 2 to 10 µM
B6: BBIt-AV of SEQ ID NO: 641 (protein)
chain: B4 chain with K44T, Y45L, Y46W, L47K, Y48S, W49Y
modifications: synthetic BBIt-VEGT

B7: BBIt-AV: truncated BBI-AV lacking the 5 C-terminal amino acids, unmodified variant, SEQ ID NO:187 (protein)
chain: DDESSKPCCDQCACTKSNPPQCRCSDMRLNSCHSACKSCACYNLYGWTCFCVDITDFCYEPCKPSE
modifications: synthetic BBIt-AV sequence
binding to VEGF compared with full-length (untruncated) BBI-AV (VegF; labeled monoclonal antibody against VEGF as competitor): bind better than the full-length molecule

activation level (BBIt-AV:BCE activity ratio after reducing agent) [2]: activate to similar levels
B8: V52L: BBIt-AV (SEQ ID NO:187) with single substitution V52L (protein)
chain: B7 chain with V52L
modifications: synthetic BBIt-AV sequence
relative activity of the amino acid substitution (BBI:BCE activity ratio vs BBIt-AV), amino acid present in BBIsb3-AV [3]: L (+)
